{"source": "paper PMC12609799", "about": "“Novel Dual-Coenzyme Specificity and Thermostability of Malate Dehydrogenase Identified in the Cyanobacterium Microcystis aeruginosa PCC7806” (International Journal of Molecular Sciences, 2025)", "proteins": {"B1": {"name": "MaMDH (Ma7806MDH) (Microcystis aeruginosa PCC 7806SL) (protein)", "chain": "MVDFYDTLIPCQSPRVSVIGAGNVGRTLAQRIAEKNLADVVLLDIVHGLPQGIALDLMEAQGIELHDSEIIGTNNYEDTAGSDIVVITAGLARKPGMSRDDLMNVNAKIVVEAATKCLKYSPEAIFIVITNPLDVMTYLVWQATGLPPQRVMGMAGVLDSSRLQTFIAMELGVSTADVHAMVLGGHGDLMLPLPRYCTVSGVPITELMDEITINRLVERTRNGGAEIVKLLQTGGAYYAPASSACTMVETILRNQSRLLPAAAYLKGEYGLQDVYLGVPCRLGCRGVESILEVRLTDAERLDLHTSAASVRQNVHLALDSLKVLM"}}, "key": {"[1]": {"substrate": "NC(=O)C1=CN([C@@H]2O[C@H](COP(=O)(O)OP(=O)(O)OC[C@H]3O[C@@H](n4cnc5c(N)ncnc54)[C@H](OP(=O)(O)O)[C@@H]3O)[C@@H](O)[C@H]2O)C=CC1", "assay": "purified protein", "format": "biochemical, Microcystis aeruginosa", "conditions": "oxaloacetate reduction, 100 mM Tris-HCl pH 8.0, 25 °C, apparent, varied: cofactor"}, "[2]": {"substrate": "NC(=O)C1=CN([C@@H]2O[C@H](COP(=O)(O)OP(=O)(O)OC[C@H]3O[C@@H](n4cnc5c(N)ncnc54)[C@H](O)[C@@H]3O)[C@@H](O)[C@H]2O)C=CC1", "assay": "purified protein", "format": "biochemical, Microcystis aeruginosa", "conditions": "oxaloacetate reduction, 100 mM Tris-HCl pH 8.0, 25 °C, apparent, varied: cofactor"}}}
{"protein": "B1", "values": [{"measurement": "Km", "setting": "[1]", "result": "113.200 ± 3.46", "unit": "µM"}, {"measurement": "kcat", "setting": "[1]", "result": "8.71 ± 1.45", "unit": "s⁻¹"}, {"measurement": "kcat/Km", "setting": "[1]", "result": 77000, "unit": "M⁻¹ s⁻¹"}, {"measurement": "Km", "setting": "[2]", "result": "33.140 ± 0.95", "unit": "µM"}, {"measurement": "kcat", "setting": "[2]", "result": "31.7 ± 1.43", "unit": "s⁻¹"}, {"measurement": "kcat/Km", "setting": "[2]", "result": 956000, "unit": "M⁻¹ s⁻¹"}]}
